{
  "source": "patent US9707274B2",
  "about": "“Methods for preventing and treating post-traumatic stress disorder (PTSD)” (priority 2007, dated 2017)",
  "key": {"α-adrenergic": {"system": "α-adrenergic", "details": "topical nasal application; cited from earlier work"}, "[1]": {"system": "human brain muscarinic cholinergic receptor", "details": "in vitro; cited from earlier work"}, "[2]": {"details": "rat, in vivo", "experimental": "Both vasoconstricting agents are α-adrenergic agonists with short duration of action (4-6 hours). The therapeutic compound selected was hypocretin-1 (HC, MW 3500), a peptide with therapeutic potential for treating narcolepsy. In addition to determining the effect of vasoconstrictors on the intranasal delivery of hypocretin-1 to the CNS, peripheral tissues and blood, vasoconstrictor effects on the drug targeting index (DTI) were also examined.\nThirty minutes following onset of intranasal delivery, rats were perfused with saline and fixed with 4% paraformaldehyde. […] The DTI for each tissue was calculated by dividing the ratio of mean tissue concentration to blood area under the curve (AUC) of the vasoconstrictor group by the ratio of mean tissue concentration to blood AUC of the control group. DTI>1.0 indicated a drug targeting advantage with the vasoconstrictor."}, "[3]": {"design": "species or system rats", "details": "rat, in vivo", "description": "Incorporation of at least one vasoconstrictor in a nasal formulation including at least one therapeutic compound, i.e., a pharmaceutical composition, enhances intranasal therapeutic compounds targeting of therapeutics to, inter alia, the CNS, meninges and lymphatics by reducing absorption into the blood, increasing concentrations in, inter alia, the CNS, or both. […] Inclusion of a vasoconstrictor in the intranasal formulation (IN PHE) further enhances brain targeting of HC compared to the intravenous delivery from the previous study (Table 2, IN PHE vs. IV). In addition, compared to intranasal delivery with no additives, intranasal administration of HC in combination with 1% PHE further enhances intranasal drug targeting to the brain, with increased targeting to the olfactory bulbs (7-fold increase), anterior olfactory nucleus (2-fold increase), frontal cortex (2-fold increase), hippocampus (2-fold increase), and hypothalamus (2-fold increase) (Table 2, IN PHE vs. IN). 1% PHE also enhances intranasal drug targeting to the superficial and deep cervical lymph nodes (5 to 6-fold) and to the meninges surrounding the brain (2-fold). Therefore, inclusion of a vasoconstrictor in an intranasal formulation is a novel strategy to further enhance intranasal drug targeting to the brain and lymphatics compared to other routes of administration. […]"}, "[4]": {"test": "Data set 1: tissue and blood distribution of intranasal HC with and without 1% PHE (pretreatment intervals 0, 5, 15 min merged)", "assay_type": "in vivo, rats", "description": "We investigated whether incorporation of a vasoconstrictor (phenylephrine, PHE) in the nasal formulation enhances drug targeting of an intranasally applied neuropeptide (hypocretin-1, HC) to the brain in rodents. Several factors may effect CNS concentrations of HC following intranasal administration of HC in the presence of PHE, including the dose of vasoconstrictor, the time after intranasal delivery, and the pretreatment time interval. PHE is commonly used at a dose of 1% for nasal decongestion and topical nasal application of PHE results in a rapid onset of action and duration of action of approximately 4 hours. Ideally, it would be preferred to have a nasal formulation where the vasoconstrictor and CNS drug are administered together, without the need for pretreatment of the nasal cavity with vasoconstrictor. Clearly this would be more convenient than having to intranasally pretreat, wait a period of time (5 min or 15 min), and then intranasally administer the CNS drug with additional vasoconstrictor. However, waiting a short period of time may be a necessary step to allow the vasoconstrictor to activate adrenergic receptors located on blood vessels in the nasal cavity to result in constriction. Thus, in these experiments, three pretreatment time intervals were investigated: 0 min (or no pretreatment), 5 min, 15 min, to determine the time interval necessary to wait to allow the intranasally applied 1% PHE to take effect. Anesthetized rats were sacrificed at 30 minutes following intranasal delivery of HC and 1% PHE, since typically high brain concentrations are achieved within 25-30 minutes of intranasal administration.\nOne-way ANOVAs comparing tissue concentrations in the three groups from the PHE-treated animals were also performed. […] Thus, the therapeutic compound(s) and vasoconstrictor(s) may be combined in a pharmaceutical composition while retaining full therapeutic benefit of the present invention. […] As a result, data obtained from control animals with different pretreatment time intervals were merged and data obtained from PHE-treated animals with different pretreatment time intervals were merged. Statistical comparisons were made between tissue concentrations in control animals (n=28) and PHE-treated animals (n=23)."}, "[5]": {"system": "saliva and plasma cortisol response", "details": "general intranasal insulin 40 IU, 26 normal adult men, placebo controlled; cited from earlier work"}, "[6]": {"details": "cited from earlier work"}},
  "note": "No end group written: not given here.",
  "data": [
    {"compound": "CNC[C@H](O)c1cccc(O)c1", "note": "[PHE, phenylephrine]", "values": [
      {"measurement": "Duration of action", "setting": "α-adrenergic", "result": "approximately 4 hours"}
    ]},
    {"compound": "O=P(O)(O)OP(=O)(O)O", "note": "[pyrophosphate]", "values": [
      {"measurement": "Concentration protecting the receptor from inactivation by oxidants such as heme", "setting": "[1]", "result": "1-5 μm"}
    ]},
    {"compound": "hypocretin-1 (QPLPDCCRQKTCSCRLYELLHGAGNHAAGILTL; ends and bridges not checked; also: 125I label, site not given here; UniProt O43612 34-66, looked up) [HC]", "values": [
      {"measurement": "Respiration during intranasal delivery", "setting": "[2]", "result": "did not lead to any improvement in respiration"},
      {"measurement": "Respiratory distress in animals during intranasal delivery", "setting": "[2]", "result": "fewer incidences of respiratory distress"},
      {"measurement": "HC drug targeting, enhancement to the meninges surrounding the brain", "setting": "[3]", "result": 2, "unit": "fold"},
      {"measurement": "Concentration of HC, Trigeminal Nerve", "setting": "[4]; intranasal HC + 1% PHE, rats, 30 min", "result": "1.71 ± 0.15", "unit": "nM"},
      {"measurement": "Concentration of HC, Medulla", "setting": "[4]; intranasal HC control (no PHE), rats, 30 min", "result": "1.26 ± 0.22", "unit": "nM"},
      {"measurement": "HC targeting (tissue-to-blood ratio), 1% PHE vs control, trigeminal nerve", "setting": "[4]; rat, in vivo", "result": "not significantly different"},
      {"measurement": "HC targeting (tissue-to-blood ratio), increase with 1% PHE vs control, anterior olfactory nucleus", "setting": "[4]; rat, in vivo", "result": 2.4, "unit": "fold"},
      {"measurement": "HC targeting (tissue-to-blood ratio), increase with 1% PHE vs control, cerebellum", "setting": "[4]; rat, in vivo", "result": 1.7, "unit": "fold"},
      {"measurement": "HC targeting (tissue-to-blood ratio), increase with 1% PHE vs control, deep cervical lymph nodes", "setting": "[4]; rat, in vivo", "result": 5.7, "unit": "fold"},
      {"measurement": "HC targeting (tissue-to-blood ratio), increase with 1% PHE vs control, dorsal meninges", "setting": "[4]; rat, in vivo", "result": 1.7, "unit": "fold"},
      {"measurement": "HC targeting (tissue-to-blood ratio), increase with 1% PHE vs control, frontal cortex", "setting": "[4]; rat, in vivo", "result": 2.3, "unit": "fold"},
      {"measurement": "HC targeting (tissue-to-blood ratio), increase with 1% PHE vs control, medulla", "setting": "[4]; rat, in vivo", "result": 1.7, "unit": "fold"},
      {"measurement": "HC targeting (tissue-to-blood ratio), increase with 1% PHE vs control, midbrain", "setting": "[4]; rat, in vivo", "result": 1.7, "unit": "fold"},
      {"measurement": "HC targeting (tissue-to-blood ratio), increase with 1% PHE vs control, olfactory bulbs", "setting": "[4]; rat, in vivo", "result": 6.8, "unit": "fold"},
      {"measurement": "HC targeting (tissue-to-blood ratio), increase with 1% PHE vs control, superficial cervical lymph nodes", "setting": "[4]; rat, in vivo", "result": 5.7, "unit": "fold"},
      {"measurement": "HC targeting (tissue-to-blood ratio), increase with 1% PHE vs control, ventral meninges", "setting": "[4]; rat, in vivo", "result": 2.9, "unit": "fold"}
    ]},
    {"compound": "insulin", "values": [
      {"measurement": "Saliva and plasma cortisol response to the Trier Social Stress Test", "setting": "[5]", "result": "significantly diminished"},
      {"measurement": "Memory, attention and functioning in Alzheimer's patients", "setting": "[6]; intranasal insulin over a 21 day period", "result": "improve memory, attention and functioning"},
      {"measurement": "Blood levels of insulin or glucose", "setting": "[6]; intranasal insulin treatment, healthy adults", "result": "no change"},
      {"measurement": "Memory in healthy adults", "setting": "[6]; intranasal insulin treatment", "result": "improves memory"},
      {"measurement": "Memory in patients with Alzheimer's disease", "setting": "[6]; intranasal insulin, twenty minutes after a single treatment", "result": "improve memory"}
    ]}
  ]
}
